Laboratory results reported in patent WO2020165374A1 (dated 2020).

Assays:
[1] = biological target: T1, human recombinant IL-15 (SinoBiological ref#10360-H07E) (human, UniProt P40933 49-162); assay: ELISA, human IL-15 immobilized, anti-human IgG peroxidase detection
T1 construct: also called Human IL-15; IL-15 cytokine

[2] = biological target: T2, recombinant human PD-1 (Sino Biologicals, reference 10377-H08H) (human, UniProt Q15116 25-167); assay: ELISA, recombinant hPD1 immobilized, anti-human IgG peroxidase detection
T2 construct: Bought protein; also called recombinant hPDl; Human recombinant PD-1
T2 sequence (Q15116 25-167 limits assumed): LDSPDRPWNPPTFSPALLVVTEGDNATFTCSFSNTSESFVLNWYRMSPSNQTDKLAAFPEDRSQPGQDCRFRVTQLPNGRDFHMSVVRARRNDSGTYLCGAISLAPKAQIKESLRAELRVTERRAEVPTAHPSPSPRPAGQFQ

T1 sequence (P40933 49-162 limits assumed, stated change not applied): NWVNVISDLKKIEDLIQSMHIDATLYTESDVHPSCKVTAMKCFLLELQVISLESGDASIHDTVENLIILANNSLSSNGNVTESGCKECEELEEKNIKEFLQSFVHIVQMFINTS

B1: anti-PD-1 antibody (antibody, human IgG4 S228P, kappa, V domains shown)
VH: QIQLVQSGSELKKPGASVKVSCKASGYTFTHYAMNWVRQAPGQGLEWMGWINTNTGEPTYAQGFTGRFVFSLDTSVSTAYLQISSLKAEDTAVYYCAREREPGMDNWGQGTLVTVSS
VL: DVVMTQSPLSLPVTLGQPASISCRSSQSLVHANTNTYLEWYQQRPGQSPRLLIYKVSNRFSGVPDRFSGSGSGTDFTLKISRVEAEDVGVYYCFQGTHVPNTFGQGTKLEIKR
notes: also called Anti-PDl; anti-PD-1 alone
Does B1 bind [1]?
Result: no binding

Does B1 bind [2]?
Result: binds
